Literature values, collected in publication PMC3222890.
Read-outs that look alike come from different tables or passages of the source.

Experiments:
[1] = target: GDI (Saccharomyces cerevisiae) (UniProt P39958)
[2] = target: GDI (Saccharomyces cerevisiae) (UniProt P39958); remark: listed apart in the source
[3] = target: GDI (Saccharomyces cerevisiae) (UniProt P39958); remark: listed apart in the source

UniProt P39958, sequence (P39958 whole entry): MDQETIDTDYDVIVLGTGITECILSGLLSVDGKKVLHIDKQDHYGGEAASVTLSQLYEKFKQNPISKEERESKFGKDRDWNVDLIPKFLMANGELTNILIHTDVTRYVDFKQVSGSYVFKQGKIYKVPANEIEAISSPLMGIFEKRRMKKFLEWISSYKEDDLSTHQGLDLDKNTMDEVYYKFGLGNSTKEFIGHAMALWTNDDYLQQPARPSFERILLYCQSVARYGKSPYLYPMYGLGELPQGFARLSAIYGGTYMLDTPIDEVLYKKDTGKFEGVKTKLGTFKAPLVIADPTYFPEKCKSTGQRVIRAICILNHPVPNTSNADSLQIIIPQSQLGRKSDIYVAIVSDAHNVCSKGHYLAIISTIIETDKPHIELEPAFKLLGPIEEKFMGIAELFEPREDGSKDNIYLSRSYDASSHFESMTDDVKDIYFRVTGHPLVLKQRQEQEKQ

Substance: Sec4 (from UniProt P07560)
- Kd [1]: 0.33 µM

Substance: Ypt31 (from UniProt P38555)
- Kd [2]: 18.9 µM

Substance: Ypt32 (from UniProt P51996)
- Kd [3]: 1.5 µM
